This is an account of results in PMC8384840.

Data set [1] concerns the target Lactate dehydrogenase (LDH) from rabbit muscle (rabbit) (UniProt P13491).
For data set [2] the target is unchanged. As to the kind of experiment: SEC; 2 µM luciferase (45 °C) or LDH (55 °C) heat shocked 15 min with 20 µM HSPB1 construct, or the HSPB1 construct heat shocked alone; analysed at the start (0 h) of the disaggregation reaction; Superose 12, reaction buffer, 4 °C; fractions detected by immunoblot. On the technique in general: Size exclusion chromatography separates by hydrodynamic size, large species first.

The target is the same in data set [3]. The source holds these as a separate data set.
Data set [4] has as its target HSPB1-3D (UniProt P04792). As to the kind of experiment: SEC; 2 µM luciferase (45 °C) or LDH (55 °C) heat shocked 15 min with 20 µM HSPB1 construct, or the HSPB1 construct heat shocked alone; analysed at the start (0 h) of the disaggregation reaction; Superose 12, reaction buffer, 4 °C; fractions detected by immunoblot.
The target in data set [5] is Lactate dehydrogenase (LDH) from rabbit muscle (rabbit) (UniProt P13491). The data set can be described thus: SEC; native luciferase or LDH alone; Superose 12 10/300 GL, reaction buffer, 4 °C; 1 mL fractions detected by immunoblot.

In data set [1], “HSPB1-3D (from UniProt P04792 1-205) (natural protein)” registered a decrease of the optical density at 320 nm (light scattering) of 2 µM LDH aggregating at 55 °C with 20 µM HSPB1-3D, against LDH alone of 90%.

On to “HSPB1-3D-GxG (from UniProt P04792 1-205) (natural protein)”, for which the percent of HSPB1-3D-GxG in the large molecular size fractions after heat shock with LDH in data set [2] turned out to be 20%. Besides, the decrease of the optical density at 320 nm (light scattering) of 2 µM LDH aggregating at 55 °C with 20 µM HSPB1-3D-GxG, against LDH alone in data set [3] amounted to 95%.

On to “Lactate dehydrogenase (LDH) from rabbit muscle”, for which, in data set [4], the “percent of total HSPB1-3D in the high molecular size fractions (7-9 mL) after heat shock with the substrate” value is ~ 20% and 40%, respectively, of the total amount of HSPB1-3D was found in high molecular size fractions.

By stoichiometry N is commonly meant the number of molecules, sites or subunits per partner or assembly. On to “Lactate dehydrogenase (LDH) from rabbit muscle (from UniProt P13491 1-332) (enzyme)”, for which the stoichiometry N in data set [5] worked out at 4.
